The values below come from article PMC4218801.

For the data set, the target named is T1, Crp (Mycobacterium smegmatis mc2155) (UniProt A0R5H1).
T1 sequence: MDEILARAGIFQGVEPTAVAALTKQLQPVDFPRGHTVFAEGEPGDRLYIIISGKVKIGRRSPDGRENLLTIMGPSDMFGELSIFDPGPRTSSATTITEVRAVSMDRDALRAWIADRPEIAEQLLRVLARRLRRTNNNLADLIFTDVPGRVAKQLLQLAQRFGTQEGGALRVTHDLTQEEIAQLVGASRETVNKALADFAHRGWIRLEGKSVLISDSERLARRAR
The experiment in a line: EMSA. The note with it: Invitrogen EMSA kit binding buffer, 100 fmol (9.3 ng) DNA, 100 uM cAMP, 20 min at room temperature; 8% native PAGE in 0.5x TBE pH 8.3 at 4 C, SYBR green stain. On the technique in general: Mobility shift assays separate free from complexed probe on a gel.

As to “GGCAGACCGCATCCGCGGCGCGTTCGGTCGCCGCGTCCCGCGCGCGGGAGATCCGTGCGTTTCGGGATGTGATGCCCGTCGCACGACGTGAGCGGCGGTGTGGAGAATCACGGCTCAGCAAAGTTGCATTTGTAAGAGGGCGCGACCAGA (double strand) [ahpC 150-bp wild-type IR1]”, the binding result was “binds”.
